In PMC10873366, “DNA binding redistributes activation domain ensemble and accessibility in pioneer factor Sox2” (Nature Communications, 2023):

Target: T1, Sox2 C-terminal intrinsically disordered region (C-IDR)
T1 chain: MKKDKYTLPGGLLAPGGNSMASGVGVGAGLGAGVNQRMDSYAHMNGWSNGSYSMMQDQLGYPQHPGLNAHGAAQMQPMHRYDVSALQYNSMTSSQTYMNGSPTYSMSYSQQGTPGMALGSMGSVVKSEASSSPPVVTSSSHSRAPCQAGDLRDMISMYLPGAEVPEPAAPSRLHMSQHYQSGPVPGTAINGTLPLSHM
Test: NMR titration; 15N-labelled C-IDR titrated with unlabelled N-DBD; 1H15N HSQC chemical shift changes of highly perturbed residues fitted to a 1:1 binding equation; 20 mM NaH2PO4, 50 mM NaCl, 5 mM DTT, pH 5.5, 15 °C
Conditions: both partners purified

Kd: 80 ± 4 µM
B1: Sox2 N-terminal domain and DBD (N-DBD) (domain or fragment)
chain: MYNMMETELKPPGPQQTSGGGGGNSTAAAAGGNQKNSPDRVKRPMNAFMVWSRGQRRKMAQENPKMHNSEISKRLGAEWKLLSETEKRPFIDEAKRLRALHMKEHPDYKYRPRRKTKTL
modifications: Limits are not printed. They are inferred from 109 expected HSQC peaks (119 residues minus 9 Pro and the N-terminal Met) and from the C-IDR starting at 120. The NMR sample was 15N(/13C)-labelled or …
